Some targets named below: McjC S440Y (UniProt Q9X2V9); McjC K337E (UniProt Q9X2V9); McjB M108T (UniProt Q9X2V8).
In the next experiment the target is T1, McjC (UniProt Q9X2V9).
T1 sequence: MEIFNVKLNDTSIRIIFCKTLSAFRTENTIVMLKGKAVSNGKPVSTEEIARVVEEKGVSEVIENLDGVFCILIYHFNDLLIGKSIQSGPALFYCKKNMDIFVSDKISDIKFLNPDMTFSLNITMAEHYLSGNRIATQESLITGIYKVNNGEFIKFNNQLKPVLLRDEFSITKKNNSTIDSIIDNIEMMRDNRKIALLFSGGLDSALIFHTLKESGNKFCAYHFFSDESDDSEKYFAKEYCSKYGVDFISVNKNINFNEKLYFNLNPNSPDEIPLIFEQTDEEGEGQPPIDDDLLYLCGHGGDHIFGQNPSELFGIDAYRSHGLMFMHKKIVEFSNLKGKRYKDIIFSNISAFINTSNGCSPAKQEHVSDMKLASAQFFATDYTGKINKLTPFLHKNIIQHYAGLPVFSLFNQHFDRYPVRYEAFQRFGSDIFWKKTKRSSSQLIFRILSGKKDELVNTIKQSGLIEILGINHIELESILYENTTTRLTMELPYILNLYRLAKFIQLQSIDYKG

For the next experiment, the target named is T2, McjB (UniProt Q9X2V8).
T2 sequence: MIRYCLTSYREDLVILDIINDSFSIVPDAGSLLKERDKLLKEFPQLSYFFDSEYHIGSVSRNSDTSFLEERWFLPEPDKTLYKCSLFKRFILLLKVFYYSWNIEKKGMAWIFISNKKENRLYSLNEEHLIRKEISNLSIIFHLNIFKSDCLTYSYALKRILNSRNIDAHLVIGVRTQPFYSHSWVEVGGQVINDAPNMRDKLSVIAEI

Residue numbers refer to the chain shown, from its start. Names may count otherwise.

For the molecule Microcin J25 precursor peptide McjA, the results for the MccJ25 production yield relative to WT (HPLC peak area of E. coli culture extract) with McjC S440Y and in the experiment with McjC K337E were 2.4% and 8.1%, respectively. Molecule “Split McjB S80/81 (B1 1-80 and B2 81-208 as separate proteins) (from UniProt Q9X2V8 1-80; Q9X2V8 81-208) (complex)” registered a MccJ25 production yield relative to WT (HPLC peak area of E. coli culture extract) with McjC of 41%.

Turning to McjA T-2M (peptide), in the experiment with McjB M108T, the MccJ25 production yield relative to WT (HPLC peak area of E. coli culture extract; synthetic rescue pair TM) came out at 5.4%. This molecule also registered a MccJ25 production yield relative to WT (HPLC peak area of E. coli culture extract) in the experiment with McjB of 1%.

B1: McjB with a C-terminal MBP fusion (enzyme)
chain: T2 sequence
Take B1: in the experiment with McjC, the MccJ25 production yield relative to WT (HPLC peak area of E. coli culture extract; McjB-MBP in an otherwise native gene cluster) came to 61%.

B2: McjB F67R (enzyme)
chain: T2 sequence with F67R
B2: the MccJ25 production yield relative to WT (HPLC peak area of E. coli culture extract) with McjC was 0.6%.

B3: McjB circular permutant CP80/81 (enzyme)
chain: LYKCSLFKRFILLLKVFYYSWNIEKKGMAWIFISNKKENRLYSLNEEHLIRKEISNLSIIFHLNIFKSDCLTYSYALKRILNSRNIDAHLVIGVRTQPFYSHSWVEVGGQVINDAPNMRDKLSVIAEIGGSSGGMIRYCLTSYREDLVILDIINDSFSIVPDAGSLLKERDKLLKEFPQLSYFFDSEYHIGSVSRNSDTSFLEERWFLPEPDKT
B3: the MccJ25 production yield relative to WT (HPLC peak area of E. coli culture extract) with McjC worked out at 4.4%.

B4: McjB circular permutant CP60/61 (enzyme)
chain: RNSDTSFLEERWFLPEPDKTLYKCSLFKRFILLLKVFYYSWNIEKKGMAWIFISNKKENRLYSLNEEHLIRKEISNLSIIFHLNIFKSDCLTYSYALKRILNSRNIDAHLVIGVRTQPFYSHSWVEVGGQVINDAPNMRDKLSVIAEIGGSSGGMIRYCLTSYREDLVILDIINDSFSIVPDAGSLLKERDKLLKEFPQLSYFFDSEYHIGSVS
On to B4, for which, in the experiment with McjC, the MccJ25 production yield relative to WT (HPLC peak area of E. coli culture extract) stood at 0.4%.

B5: McjC with a C-terminal MBP fusion (enzyme)
chain: T1 sequence
Molecule B5 displayed a MccJ25 production yield relative to WT (HPLC peak area of E. coli culture extract; McjC-MBP in an otherwise native gene cluster) with McjB of 86%.

For the origin of these results see paper PMC11420955.
